Results from patent US20170253660A1.

Biological target: T1, B7-H3 on LAN-1 cells (human) (UniProt Q5ZPR3)
T1 sequence (looked up): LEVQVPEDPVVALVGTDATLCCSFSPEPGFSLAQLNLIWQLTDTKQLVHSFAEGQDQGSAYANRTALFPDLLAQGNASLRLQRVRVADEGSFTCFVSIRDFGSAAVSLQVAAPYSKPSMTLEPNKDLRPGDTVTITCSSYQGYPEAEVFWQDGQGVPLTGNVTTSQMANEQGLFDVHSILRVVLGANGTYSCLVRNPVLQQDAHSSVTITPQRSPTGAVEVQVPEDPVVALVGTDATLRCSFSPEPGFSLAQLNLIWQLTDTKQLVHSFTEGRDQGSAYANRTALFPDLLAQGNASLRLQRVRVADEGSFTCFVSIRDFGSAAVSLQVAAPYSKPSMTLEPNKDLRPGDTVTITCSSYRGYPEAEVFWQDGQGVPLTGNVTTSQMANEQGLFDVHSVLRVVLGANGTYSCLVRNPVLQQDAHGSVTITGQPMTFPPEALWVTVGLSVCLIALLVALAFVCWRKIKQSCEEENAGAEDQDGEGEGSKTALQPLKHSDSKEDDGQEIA
Assay: flow cytometry wash-off on LAN-1 cells, FITC-labeled goat anti-mouse second antibody

B1: 8H9 (antibody, INN chains, looked up, mouse IgG1, V domains shown)
VH: QVQLQQSGAELVKPGASVKLSCKASGYTFTNYDINWVRQRPEQGLEWIGWIFPGDGSTQYNEKFKGKATLTTDTSSSTAYMQLSRLTSEDSAVYFCARQTTATWFAYWGQGTLVTVSA
VL: DIVMTQSPATLSVTPGDRVSLSCRASQSISDYLHWYQQKSHESPRLLIKYASQSISGIPSRFSGSGSGSDFTLSINSVEPEDVGVYYCQNGHSFPLTFGAGTKLELK
retention on cells after 10 washes (MFI as percent of the baseline after first wash): 80%
